Experimental data: publication PMC10303457 (2023)
No end group written: not given here.

Legend:
Assay in all cases: FP
[1] = molecular target: Human IMPα1 aa 71–529 (lacking the IMPβ binding domain) (human, UniProt P52292 71-529)
[2] = molecular target: Human IMPα5 aa 74–538 (lacking the IMPβ binding domain) (human, UniProt P52294 74-538)
[3] = molecular target: T1, Human IMPα3 aa 64–521 (lacking the IMPβ binding domain) (human, UniProt O00629 64-521)
T1 chain: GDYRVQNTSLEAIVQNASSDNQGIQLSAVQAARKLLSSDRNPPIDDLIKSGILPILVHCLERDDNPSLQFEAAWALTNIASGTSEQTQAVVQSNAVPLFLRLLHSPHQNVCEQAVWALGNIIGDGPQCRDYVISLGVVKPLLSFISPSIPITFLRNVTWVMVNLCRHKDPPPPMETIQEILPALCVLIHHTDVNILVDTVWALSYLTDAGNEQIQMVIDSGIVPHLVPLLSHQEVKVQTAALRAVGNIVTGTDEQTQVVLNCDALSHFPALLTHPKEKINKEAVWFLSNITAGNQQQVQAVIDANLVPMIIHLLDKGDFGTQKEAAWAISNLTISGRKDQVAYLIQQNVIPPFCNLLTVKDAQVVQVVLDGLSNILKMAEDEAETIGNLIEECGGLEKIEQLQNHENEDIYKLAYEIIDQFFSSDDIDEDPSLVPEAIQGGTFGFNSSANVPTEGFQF

Sequence of Human IMPα5 aa 74–538 (lacking the IMPβ binding domain) (P52294 74-538): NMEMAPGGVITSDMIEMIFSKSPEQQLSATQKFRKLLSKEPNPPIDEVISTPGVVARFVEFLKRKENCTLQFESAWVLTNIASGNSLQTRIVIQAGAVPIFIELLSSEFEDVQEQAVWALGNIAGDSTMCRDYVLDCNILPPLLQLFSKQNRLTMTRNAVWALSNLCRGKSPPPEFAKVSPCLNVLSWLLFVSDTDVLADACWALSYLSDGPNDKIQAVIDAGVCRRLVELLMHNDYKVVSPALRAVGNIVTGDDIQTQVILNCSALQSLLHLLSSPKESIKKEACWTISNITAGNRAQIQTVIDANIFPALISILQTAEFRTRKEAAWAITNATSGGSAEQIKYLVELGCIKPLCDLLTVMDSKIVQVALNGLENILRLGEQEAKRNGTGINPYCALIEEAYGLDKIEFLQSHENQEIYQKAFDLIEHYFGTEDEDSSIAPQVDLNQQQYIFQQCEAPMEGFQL

Row | Binder | Kd [1] | Kd [2] | Kd [3]
1 | SGKRKKIRTIAAYPLGVGKS (also: FITC-labelled, site not given here) [FITC-labelled HeV M NLS1 peptide] | 560 nM | 1470 nM | 2.47 µM
2 | VRRAGKYYSVEYCKRKID (also: FITC-labelled, site not given here) [FITC-labelled HeV M NLS2 peptide] |  |  | 11.5 µM
